Data published in publication PMC6530877 (PLoS Pathogens, 2019).

Tests used:
Assay in all cases: ELISA; Fab fragments (IGH526, HCV1) coated ~2 μg per well; purified E1E2-DHD15 or E1E2-Fc serially diluted in 25 mM Tris, 150 mM NaCl, pH 7.4, 0.05% Tween-20, 1% BSA; detection by anti-FLAG M2 and/or HRP anti-mouse IgG
Conditions in all cases: both partners purified
[1] = molecular target: T1, E1E2-Fc oligomer (oligomeric SEC fraction of Fc-tagged HCV E1E2), expressed in HEK293 cells (hepatitis C virus genotype 1b, Con1, UniProt Q9WMX2)
T1 construct: also called E1E2 oligomer; oligomeric E1E2; source: HEK293F, transient (pMlink), secreted, purified (oligomer peak of the SEC)

[2] = molecular target: T2, E1E2-DHD15 heterodimer (HCV E1 and E2 ectodomains with the de novo designed heterodimeric tag DHD15), … (hepatitis C virus genotype 1b, Con1, UniProt Q9WMX2)
T2 construct: source: HEK293F, transient (pMlink), secreted, purified

[3] = molecular target: T3, E1E2-DHD15 heterodimer (HCV E1 and E2 ectodomains with the de novo designed heterodimeric tag DHD15), insect … (hepatitis C virus genotype 1b, Con1, UniProt Q9WMX2)
T3 construct: source: High-5 insect cells (baculovirus), secreted, purified (Ni-NTA, Flag M2, SEC)

[4] = molecular target: T4, E1E2-Fc heterodimer (HCV E1 and E2 ectodomains, Fc-tagged), mammalian cell expressed (hepatitis C virus genotype 1b, Con1, UniProt Q9WMX2)
T4 construct: source: HEK293F, transient (pMlink), secreted, purified

Measured: binding result

B1: Fab fragment of neutralizing antibody HCV1 (Fab, V domains shown)
VH: EVQLLESGGGVVQPGRSLRLSCTASGFTFNNYGMHWVRQTPGKGLEWLAVIWFDENNKYYADSVRGRFTISRDNSKNTLFLQMNSLKTEDTAMYYCARDISLVRDAFIYFDFWGLGTLVTVSS
VL: ELTLTQSPATLSLSPGERATLSCRASQSVSSYLAWYQQKPGQAPRLLIYDASNRATGIPARFSGSGSGTDFTLTISSLEPEDFAVYYCQQRSNWITFGQGTRLEIK
notes: source: HEK293F, transient (pMlink), purified
binds: all assays above
